Reference: US20080274950A1 (BABRAHAM INSTITUTE, published 2008)

T1: mouse N-cadherin with an uncleaved prodomain expressed on L cells (furin site RQKR replaced with Factor Xa … (mouse, UniProt P15116 160-906))
T1 construct: whole, on cells; Prodomain is still attached in the assay; also called unprocessed N-cadherin; L cell transfectants expressing unprocessed N-cadherin
T1 sequence (looked up): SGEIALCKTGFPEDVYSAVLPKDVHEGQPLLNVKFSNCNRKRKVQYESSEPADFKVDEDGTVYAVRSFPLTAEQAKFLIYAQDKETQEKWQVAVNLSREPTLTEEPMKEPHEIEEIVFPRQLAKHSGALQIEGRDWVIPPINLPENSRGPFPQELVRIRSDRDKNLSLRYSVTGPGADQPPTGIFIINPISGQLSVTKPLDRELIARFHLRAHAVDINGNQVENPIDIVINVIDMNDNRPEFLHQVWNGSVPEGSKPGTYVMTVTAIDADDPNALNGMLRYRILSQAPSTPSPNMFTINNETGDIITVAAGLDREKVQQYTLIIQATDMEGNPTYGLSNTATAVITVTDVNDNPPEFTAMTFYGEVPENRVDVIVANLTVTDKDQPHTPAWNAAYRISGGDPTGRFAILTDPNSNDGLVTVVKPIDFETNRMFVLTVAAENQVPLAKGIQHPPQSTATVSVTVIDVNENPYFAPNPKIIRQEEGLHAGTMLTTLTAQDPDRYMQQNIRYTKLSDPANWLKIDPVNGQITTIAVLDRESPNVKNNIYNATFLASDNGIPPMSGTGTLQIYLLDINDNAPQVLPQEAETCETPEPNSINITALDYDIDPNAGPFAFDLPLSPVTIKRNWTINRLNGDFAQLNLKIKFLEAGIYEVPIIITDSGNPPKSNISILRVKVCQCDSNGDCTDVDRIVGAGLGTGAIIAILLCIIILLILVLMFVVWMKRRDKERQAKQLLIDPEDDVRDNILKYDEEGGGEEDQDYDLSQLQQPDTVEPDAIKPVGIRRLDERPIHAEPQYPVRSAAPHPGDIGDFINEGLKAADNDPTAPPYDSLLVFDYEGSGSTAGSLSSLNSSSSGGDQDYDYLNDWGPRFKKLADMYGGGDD


Assays:
[1] = biological target: the molecule itself; test: bead aggregation assay, 1.25 mM CaCl2
Protocol: Dynabeads (Dynal Biotech) coupled to Protein A were coated with N-cadherin Fc at 1 μg/ml in calcium and magnesium-free HBSS containing 0.1% Tween 20, 1% FCS and 4 mM EDTA. Eppendorf tubes containing beads and fusion protein were rotated slowly for 1 hour at room temperature to allow binding to take place. The beads were then washed in the above assay buffer lacking EDTA and then resuspended in the same buffer supplemented with 1.25 mM CaCl₂. Beads were allowed to aggregate in a volume of 100 μl for 2 hours at 37° C. by slow rotation, in an eppendorf tube, at approximately 20 rpm. Aggregation was then assessed by light microscopy.
In the experiments described so far in this example, disruption of the salt bridge prevented intramolecular docking of Trp 2 in one or both components of the dimer. In an alternative strategy to prevent intramolecular docking, we removed Trp2 by introducing the mutation W2G or blocked the hydrophobic acceptor pocket with an isoleucine side chain projecting into the cavity using the mutation A801. N-cadherin Fc fusion proteins with these mutations were then tested against our panel of K562 transfectants (FIG. 17a). In keeping with the explanation given in FIG. 5, the W2G mutant acted as a strand acceptor and therefore adhered strongly to the E89A mutant whereas the A80I mutant was a strand donor and adhered to the GG extension mutant. […] In contrast, beads coated with the W2G or A801 mutants and tested separately clustered in twos and threes, whereas beads coated with the negative control mutant, D134A, were entirely monodisperse. To test whether all five extracellular domains of N-cadherin (EC1-EC5) are necessary for the strong adhesive interaction between the complementary mutants, we compared the adhesive activity of the W2G mutant prepared as a full length (EC1-EC5) Fc fusion protein with that of the same mutant prepared as a truncated construct containing only cadherin domains EC1 and EC2.

[2] = biological target: T1, mouse N-cadherin with an uncleaved …; test: adhesion of L cell transfectants to coated N-cadherin Fc
Protocol: Adhesion tests were conducted substantially as described in Example 1. Briefly, K562 Cells or L cells transfected with wild type or mutant N-cadherin were allowed to settle for 45 minutes at 37° C. onto N-cadherin Fc fusion proteins coated at 1 μg/ml to a 96 well plate. Non-adherent cells were then washed off and residual adherent cells were quantitated by measuring acid phosphatase activity. Assays were conducted in quadruplicate and results are expressed as % cells adhering +/−SEM.
L cells expressing mouse N-cadherin with an uncleaved prodomain (see Koch et al., 2004) were obtained from Dr Weisong Shan (Montreal Neurological Institute). The normal furin cleavage site, RQKR, had been replaced with a Factor Xa site, IEGR, to give the correct N-terminus after digestion. […] L cells suspended in HBSS containing 0.1% BSA were treated with 0.01% trypsin (Sigma, Type XI) in the presence of 2 mM Ca²⁺ for 10 minutes at 37° C. and the digestion was then quenched with soyabean trypsin inhibitor, 0.5 mg per ml (Sigma, Type I-S). Cells were then washed and tested for adhesion to N-cadherin Fc-fusion protein. To check for complete removal of the prodomain, the cells were lysed in SDS sample buffer and the cadherin analysed by SDS PAGE under reducing conditions on a 4-12% gradient gel. […]

Binder	binding result [1]	binding result [2]
wild type chicken N-cadherin-Fc fusion protein, dimeric (linked by disulphide bonds at the Ig hinge region) (Fc fusion, UniProt P10288 165-729, looked up, extracellular domain; also called dimeric N-cadherin-Fc; wild type N-cadherin; not shown: hinge region, CH2 and CH3 domains of human IgG1 heavy chain (vector pIgSig)) DWVIPPINLPENSRGPFPQELVRIRSDRDKSLSLRYSVTGPGADQPPTGIFIINPISGQLSVTKPLDREQIASFHLRAHAVDVNGNQVENPIDIVINVIDMNDNRPEFLHQVWNGTVPEGSKPGTYVMTVTAIDADDPNAQNGMLRYRILSQAPSSPSPNMFTINNETGDIITVAAGLDREKVQQYTLIIQATDMEGNPTYGLSNTATAVITVTDVNDNPPEFTAMTFYGEVPENRVDVIVANLTVTDKDQPHTPAWNARYQMTGGDPTGQFTILTDPNSNDGLVTVVKPIDFETNRMFVLTVAAENQVPLAKGIQHPPQSTATVSITVIDVNESPYFVPNPKLVRQEEGLLAGSMLTTFTARDPDRYMQQTSLRYSKLSDPANWLKIDPVNGQITTTAVLDRESIYVQNNMYNATFLASDNGIPPMSGTGTLQIYLLDINDNAPQVNPKEATTCETLQPNAINITAVDPDIDPNAGPFAFELPDSPPSIKRNWTIVRISGDHAQLSLRIRFLEAGIYDVPIVITDSGNPHASSTSVLKVKVCQCDINGDCTDVDRIVGAGLGTG	binds	no binding (tested: Fc fusion protein coated at 1 µg/ml)
chicken N-cadherin-Fc fusion protein with the mutation D134A, dimeric (Fc fusion, UniProt P10288 165-728, looked up, extracellular domain; also called D134A mutant; N-cadherin Fc mutant D134A; not shown: hinge region, CH2 and CH3 domains of human IgG1 heavy chain (vector pIgSig)) DWVIPPINLPENSRGPFPQELVRIRSDRDKSLSLRYSVTGPGADQPPTGIFIINPISGQLSVTKPLDREQIASFHLRAHAVDVNGNQVENPIDIVINVIDMNDNRPEFLHQVWNGTVPEGSKPGTYVMTVTAIAADDPNAQNGMLRYRILSQAPSSPSPNMFTINNETGDIITVAAGLDREKVQQYTLIIQATDMEGNPTYGLSNTATAVITVTDVNDNPPEFTAMTFYGEVPENRVDVIVANLTVTDKDQPHTPAWNARYQMTGGDPTGQFTILTDPNSNDGLVTVVKPIDFETNRMFVLTVAAENQVPLAKGIQHPPQSTATVSITVIDVNESPYFVPNPKLVRQEEGLLAGSMLTTFTARDPDRYMQQTSLRYSKLSDPANWLKIDPVNGQITTTAVLDRESIYVQNNMYNATFLASDNGIPPMSGTGTLQIYLLDINDNAPQVNPKEATTCETLQPNAINITAVDPDIDPNAGPFAFELPDSPPSIKRNWTIVRISGDHAQLSLRIRFLEAGIYDVPIVITDSGNPHASSTSVLKVKVCQCDINGDCTDVDRIVGAGLGT	no binding (tested: beads coated at 1 µg/ml)	no binding (tested: Fc fusion protein coated at 1 µg/ml)
